From patent publication US20180118803A1 (Memorial Sloan Kettering, published 2018)
Each block holds one binder with its values, some of them ahead of it.

Legend:
[1] = biological target: T1, GPRC5D peptide stretch 15LCDAEGPWG23 (N-term) (human); experiment: Pepscan ELISA on peptide arrays, high stringency, 3 ug/ml
T1 construct: This is a stretch deduced from array peptides that contain it
T1 peptide: LCDAEGPWG
Method: (§1) ELISA Screening—The binding of antibody to each of the synthesized peptides was tested in a PEPSCAN-based ELISA. The peptide arrays were incubated with primary antibody solution (overnight at 4° C.). After washing, the peptide arrays were incubated with a 1/1000 dilution of an appropriate antibody peroxidase conjugate (SBA) for one hour at 25° C. After washing, the peroxidase substrate 2,2′-azino-di-3-ethylbenzthiazoline sulfonate (ABTS) and 2 μl/ml of 3 percent H₂O₂ were added. After one hour, the color development was measured. The color development was quantified with a charge coupled device (CCD)—camera and an image processing system.

[2] = biological target: T2, GPRC5D peptides containing sequence 230QFQRQPQWDDPVVC243 (ECL3) (human); experiment: Pepscan ELISA, set 1 (linear) compared with set 4 (loop), high stringency, 3 ug/ml
T2 construct: This is a stretch deduced from array peptides that contain it
T2 peptide: QFQRQPQWDDPVVC

[3] = biological target: T3, GPRC5D peptide stretch 5CIESTGDYFLLCD17 (N-term) (human); experiment: Pepscan ELISA on peptide arrays, high stringency, 1 ug/ml
T3 construct: This is a stretch deduced from array peptides that contain it
T3 peptide: CIESTGDYFLLCD
Method: as §1

[4] = biological target: T4, GPRC5D peptide stretch 16CDAEGPWGII25 (N-term) (human); experiment: Pepscan ELISA on peptide arrays, moderate stringency, 1 ug/ml
T4 construct: This is a stretch deduced from array peptides that contain it
T4 peptide: CDAEGPWGII
Method: as §1

[5] = biological target: T5, GPRC5D peptide stretch 229PQFQRQPQW237 (ECL3) (human); experiment: as above
T5 construct: This is a stretch deduced from array peptides that contain it
T5 peptide: PQFQRQPQW
Method: as §1

- binding result [1]: binds
- binding result [2]: binds
B1: ET150-8 mIgG1 (antibody, V domains shown)
VH: QVQLVESGGGLVHPGGSLRLSCAASGFTFRSHSMNWVRQAPGKGLEWVSSISSDSTYTYYADSVKGRFTISRDNAKNSLYLQMNSLRAEDTAVYYCARSGGQWKYYDYWGQGTLVTVSS
VL: SSELTQDPAVSVALGQTVRITCQGDSLRSYYASWYQQKPGQAPVLVIYGKNNRPSGIPDRFSGSSSGNTASLTITGAQAEDEADYYCNSRDSSGNPPVVFGGGTKLTVLG
notes: also called ET150-158

- binding result [3]: binds
B2: ET150-5 mIgG1 (antibody, V domains shown)
VH: EVQLVESGGGLVKPGGSLRLSCAASGFTFSDYYMSWIRQAPGKGLEWVSYISSSGSTIYYADSVKGRFTISRDNAKNSLYLQMNSLRAEDTAVYYCARGYGKAYDQWGQGTLVTVSS
VL: QSVLTQPPSASGTPGQRVTISCSGSRSNVGGNYVFWYQQVPGATPKLLIYRSNQRPSGVPDRFAGSKSGSSASLAISGLRSEDEADYYCATWDDSLSGFVFGTGTKVTVLG
notes: also called ET150-155

- binding result [4]: binds
- binding result [5]: binds
B3: ET150-2 mIgG1 (antibody, V domains shown)
VH: QMQLVQSGAEVKKPGASVKVSCKASGYTFNRYAITWVRQAPGQGLEWMGWISAYNGNSHYAQKLQGRVTMTTDTSTGTAYMELRRLRSDDTAVYYCARMAYDSWGQGTLVTVSS
VL: QSVLTQPASVSGSPGQSLTISCTGTSNDVGAYKYVSWYQQYPGKAPKLILYDVFKRPSGVSNRFSGSKSDNTASLTISGLQAEDEADYYCFSLTSSNTYVFGTGTKVTVLG
notes: also called ET150-152
